Patent publication US20220195407, “OPTIMIZATION OF ENGINEERED MEGANUCLEASES FOR RECOGNITION SEQUENCES” (Precision BioSciences, Inc., published 2022)

Legend:
Experiment in all cases: cell_activity; CHO iGFFP reporter
LOX 3-4 M.36 = target: T1, LOX 3-4 M.36 (artificial (I-CreI derived))
T1 chain: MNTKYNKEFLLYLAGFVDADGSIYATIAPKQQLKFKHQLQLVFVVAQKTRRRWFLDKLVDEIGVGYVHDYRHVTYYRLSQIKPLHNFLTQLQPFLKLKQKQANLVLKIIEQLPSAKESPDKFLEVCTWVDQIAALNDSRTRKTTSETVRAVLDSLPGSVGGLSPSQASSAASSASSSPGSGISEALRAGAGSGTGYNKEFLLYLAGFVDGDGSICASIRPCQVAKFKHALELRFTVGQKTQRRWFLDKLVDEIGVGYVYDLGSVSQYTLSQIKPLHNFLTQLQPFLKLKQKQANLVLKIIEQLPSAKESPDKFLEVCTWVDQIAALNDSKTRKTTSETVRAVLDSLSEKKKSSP
From the text: (§1) A CHO cell reporter system (see WO/2012/167192, FIG. 3) was used to determine whether the engineered meganucleases generated in these studies could recognize and cleave the modified LOX 3-4 recognition sequences in Table 87. To perform the assay, a pair of CHO cell reporter lines were produced, which carried a non-functional Green Fluorescent Protein (GFP) gene expression cassette integrated into the genome of the cell. The GFP gene in each cell line was interrupted by a pair of recognition sequences such that intracellular cleavage of either recognition sequence by a meganuclease would stimulate a homologous recombination event resulting in a functional GFP gene. In both cell lines, one of the recognition sequences was derived from the LOX 3-4 recognition sequence (i.e., those sequences disclosed in Table 87), and the second recognition sequence was specifically recognized by a control meganuclease called “CHO 23/24.” CHO reporter cells comprising a recognition sequence derived from the LOX 3-4 recognition sequence and the CHO 23/24 recognition sequence are referred to herein as “test cells.”
(§2) Novel engineered meganucleases derived from the LOX 3-4x.109 meganuclease were prepared by making amino acid substitutions at one or more positions in the first subunit. These engineered meganucleases were then evaluated for cleavage of the LOX 3-4 recognition sequence modified to have a GTGA center sequence (SEQ ID NO: 434) in the CHO reporter assay according to Example 1. Novel meganucleases which were modified to comprise the residues recited in the tables below were capable of cleaving the LOX 3-4 recognition sequence having a GTGA four base pair center sequence.

LOX 3-4 M.39 = target: T2, LOX 3-4 M.39 (artificial (I-CreI derived))
T2 chain: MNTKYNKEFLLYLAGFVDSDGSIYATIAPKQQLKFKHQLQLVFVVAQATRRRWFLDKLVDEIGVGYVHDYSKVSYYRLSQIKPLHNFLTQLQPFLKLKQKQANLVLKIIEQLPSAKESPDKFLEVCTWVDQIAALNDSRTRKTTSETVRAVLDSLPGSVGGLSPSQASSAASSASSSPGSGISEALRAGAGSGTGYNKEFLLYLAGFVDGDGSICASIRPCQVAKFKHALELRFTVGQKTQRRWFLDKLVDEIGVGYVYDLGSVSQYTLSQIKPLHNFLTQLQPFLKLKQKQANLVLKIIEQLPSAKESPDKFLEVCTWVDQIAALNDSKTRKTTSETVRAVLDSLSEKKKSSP
From the text: as §1, §2

LOX 3-4 M.47 = target: T3, LOX 3-4 M.47 (artificial (I-CreI derived))
T3 chain: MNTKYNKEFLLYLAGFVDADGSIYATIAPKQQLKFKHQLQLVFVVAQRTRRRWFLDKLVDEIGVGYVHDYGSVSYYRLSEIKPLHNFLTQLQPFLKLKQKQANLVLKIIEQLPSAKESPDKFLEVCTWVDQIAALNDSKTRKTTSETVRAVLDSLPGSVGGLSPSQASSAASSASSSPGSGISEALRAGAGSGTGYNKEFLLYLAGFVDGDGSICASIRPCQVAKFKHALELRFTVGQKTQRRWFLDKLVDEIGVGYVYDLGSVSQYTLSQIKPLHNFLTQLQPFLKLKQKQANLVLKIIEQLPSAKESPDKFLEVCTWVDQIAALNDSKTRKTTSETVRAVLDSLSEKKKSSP
From the text: as §1, §2

LOX 3-4 m.111 = target: T4, LOX 3-4 m.111 (artificial (I-CreI derived))
T4 chain: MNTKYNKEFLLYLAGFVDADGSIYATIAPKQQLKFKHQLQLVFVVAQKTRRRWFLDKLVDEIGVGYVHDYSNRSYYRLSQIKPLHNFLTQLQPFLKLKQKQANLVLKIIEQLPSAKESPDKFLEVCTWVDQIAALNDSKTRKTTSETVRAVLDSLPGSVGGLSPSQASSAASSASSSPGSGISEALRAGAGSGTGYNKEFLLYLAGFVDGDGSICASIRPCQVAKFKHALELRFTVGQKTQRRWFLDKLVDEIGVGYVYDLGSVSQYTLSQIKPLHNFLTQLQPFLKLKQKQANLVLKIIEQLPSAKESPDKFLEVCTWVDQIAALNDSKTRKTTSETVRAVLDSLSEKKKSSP
From the text: as §1
as §2, with “GTAG” for “GTGA”, “390)” for “434)”

LOX 3-4 m.108 = target: T5, LOX 3-4 m.108 (artificial (I-CreI derived))
T5 chain: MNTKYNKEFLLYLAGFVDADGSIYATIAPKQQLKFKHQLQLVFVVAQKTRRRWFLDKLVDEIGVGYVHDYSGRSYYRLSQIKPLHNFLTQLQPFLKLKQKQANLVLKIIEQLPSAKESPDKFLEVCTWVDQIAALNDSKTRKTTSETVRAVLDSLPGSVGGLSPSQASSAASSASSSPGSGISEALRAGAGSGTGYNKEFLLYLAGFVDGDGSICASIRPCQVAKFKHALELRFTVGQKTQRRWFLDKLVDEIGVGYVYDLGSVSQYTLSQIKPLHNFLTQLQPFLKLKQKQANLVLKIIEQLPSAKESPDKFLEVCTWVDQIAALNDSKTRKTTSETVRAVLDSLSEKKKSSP
From the text: as §1
as §2, with “GTAG” for “GTGA”, “390)” for “434)”

LOX 3-4 m.97 = target: T6, LOX 3-4 m.97 (artificial (I-CreI derived))
T6 chain: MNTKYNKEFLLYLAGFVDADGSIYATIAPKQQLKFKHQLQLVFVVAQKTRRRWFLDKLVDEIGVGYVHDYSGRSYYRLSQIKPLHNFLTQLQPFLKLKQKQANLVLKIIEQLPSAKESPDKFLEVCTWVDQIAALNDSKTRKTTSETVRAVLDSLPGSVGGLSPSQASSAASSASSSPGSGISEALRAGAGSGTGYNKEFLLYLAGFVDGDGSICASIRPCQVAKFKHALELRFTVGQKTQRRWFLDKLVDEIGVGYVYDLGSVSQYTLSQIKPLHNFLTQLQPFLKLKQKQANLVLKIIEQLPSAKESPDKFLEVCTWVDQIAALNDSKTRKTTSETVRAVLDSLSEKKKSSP
From the text: as §1
as §2, with “GTAG” for “GTGA”, “390)” for “434)”

LOX 3-4 m.152 = target: T7, LOX 3-4 m.152 (artificial (I-CreI derived))
T7 chain: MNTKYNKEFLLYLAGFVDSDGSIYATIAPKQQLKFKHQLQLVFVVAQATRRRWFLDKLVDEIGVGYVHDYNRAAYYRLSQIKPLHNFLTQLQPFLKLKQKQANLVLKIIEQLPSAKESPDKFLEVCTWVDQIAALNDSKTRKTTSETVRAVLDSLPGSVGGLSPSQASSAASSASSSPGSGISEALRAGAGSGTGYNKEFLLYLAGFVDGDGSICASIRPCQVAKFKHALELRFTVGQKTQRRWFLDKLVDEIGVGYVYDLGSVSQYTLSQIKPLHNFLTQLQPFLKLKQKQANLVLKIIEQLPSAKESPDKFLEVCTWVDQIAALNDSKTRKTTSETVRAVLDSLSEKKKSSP
From the text: as §1
as §2, with “GTAT” for “GTGA”, “400)” for “434)”

LOX 3-4 m.140 = target: T8, LOX 3-4 m.140 (artificial (I-CreI derived))
T8 chain: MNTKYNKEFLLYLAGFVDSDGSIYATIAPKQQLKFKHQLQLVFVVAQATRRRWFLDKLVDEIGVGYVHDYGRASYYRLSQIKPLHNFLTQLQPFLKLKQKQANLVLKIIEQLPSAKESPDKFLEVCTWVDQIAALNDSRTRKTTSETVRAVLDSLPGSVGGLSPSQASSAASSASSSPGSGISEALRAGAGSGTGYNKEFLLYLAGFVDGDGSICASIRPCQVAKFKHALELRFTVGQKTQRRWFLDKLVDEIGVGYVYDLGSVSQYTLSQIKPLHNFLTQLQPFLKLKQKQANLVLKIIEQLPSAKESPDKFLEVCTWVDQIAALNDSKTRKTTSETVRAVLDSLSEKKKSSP
From the text: as §1
as §2, with “GTAT” for “GTGA”, “400)” for “434)”

LOX 3-4 m.149 = target: T9, LOX 3-4 m.149 (artificial (I-CreI derived))
T9 chain: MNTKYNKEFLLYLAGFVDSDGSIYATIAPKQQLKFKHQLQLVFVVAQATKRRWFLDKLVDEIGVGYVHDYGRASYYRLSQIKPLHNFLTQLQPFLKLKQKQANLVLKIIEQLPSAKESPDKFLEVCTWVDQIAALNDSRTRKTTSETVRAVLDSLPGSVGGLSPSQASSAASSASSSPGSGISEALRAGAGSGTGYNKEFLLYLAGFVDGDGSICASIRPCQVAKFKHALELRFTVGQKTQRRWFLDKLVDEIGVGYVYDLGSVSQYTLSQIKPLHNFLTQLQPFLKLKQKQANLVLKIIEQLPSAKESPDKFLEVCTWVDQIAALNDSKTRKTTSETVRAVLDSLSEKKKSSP
From the text: as §1
as §2, with “GTAT” for “GTGA”, “400)” for “434)”

B1: LOX 3-4 GTGA (dsDNA)
DNA 1: GTATAGCATGTGATATACGAAG
DNA 2: CTTCGTATATCACATGCTATAC
- activity (LOX 3-4 M.36): 2.75 % GFP
- activity (LOX 3-4 M.39): 8.66 % GFP
- activity (LOX 3-4 M.47): 10.1 % GFP

B2: LOX 3-4 GTAG (dsDNA)
DNA 1: GTATAGCATGTAGTATACGAAG
DNA 2: CTTCGTATACTACATGCTATAC
- activity (LOX 3-4 m.111): 17 % GFP
- activity (LOX 3-4 m.108): 19.7 % GFP
- activity (LOX 3-4 m.97): 17.2 % GFP

B3: LOX 3-4 GTAT (dsDNA)
DNA 1: GTATAGCATGTATTATACGAAG
DNA 2: CTTCGTATAATACATGCTATAC
- activity (LOX 3-4 m.152): 4.43 % GFP
- activity (LOX 3-4 m.140): 13.1 % GFP
- activity (LOX 3-4 m.149): 12.9 % GFP
